Results as given in patent publication US20100015126A1, “Methods of Binding of Cross-Beta Structures By Chaperones” (priority 2006, published 2010).

Columns and labels:
[1] = molecular target: Hypothetical protein/Heat shock 70 kDa protein 5 (glucose-regulated protein, 78 kDa = GRP78 = BiP = HSPA5), as identified in eluates (human) (UniProt P11021); experiment: BiP-Sepharose pull-down, RA synovial fluid sample 5B, 1 M NaCl eluate, MS; BiP may stem from the column
[2] = molecular target: IGKV1-5 protein, immunoglobulin kappa variable 1-5 (human) (UniProt P01602); experiment: BiP-Sepharose pull-down, RA synovial fluid sample 3B, 1 M NaCl eluate, MS; may be indirect
[3] = molecular target: IGHM protein, immunoglobulin heavy chain mu (heavy chain disease protein) (human) (UniProt P01871); experiment: as above
[4] = molecular target: Ig kappa chain V-IV region Len, immunoglobulin kappa variable 4-1 (human) (UniProt P06312); experiment: as above
[5] = molecular target: Isoform A of Proteoglycan-4 precursor (human) (UniProt Q92954); experiment: as above
[6] = molecular target: Heat shock 70 kDa protein 1L (human) (UniProt P34931); experiment: as above
[7] = molecular target: Haptoglobin precursor (human) (UniProt P00738); experiment: as above
Histone H3.2 (human) = Histone H3.2 (human) (UniProt Q71DI3); experiment: as above
[8] = molecular target: Apolipoprotein A-I precursor (human) (UniProt P02647); experiment: as above
[9] = molecular target: Neutrophil defensin 1 precursor (human) (UniProt P59665); experiment: as above
[10] = molecular target: Galectin-3-binding protein precursor (human) (UniProt Q08380); experiment: as above
[11] = molecular target: FLJ00385 protein (Fragment), immunoglobulin heavy constant mu (human) (UniProt P01871); experiment: as above
[12] = molecular target: Isoform H17 of Myeloperoxidase precursor (human) (UniProt P05164); experiment: as above
[13] = molecular target: 25 kDa protein/immunoglobulin lambda chain/rheumatoid factor G9 light chain (lambda V3)/IGLC1 protein (human) (UniProt P0CG04); experiment: as above
[14] = molecular target: Clusterin precursor (human) (UniProt P10909); experiment: as above
[15] = molecular target: Hypothetical protein/Heat shock 70 kDa protein 5 (glucose-regulated protein, 78 kDa = GRP78 = BiP = HSPA5), as identified in eluates (human) (UniProt P11021); experiment: BiP-Sepharose pull-down, RA synovial fluid sample 3B, 1 M NaCl eluate, MS; BiP may stem from the column
[16] = molecular target: Hypothetical protein/Heat shock 70 kDa protein 5 (glucose-regulated protein, 78 kDa = GRP78 = BiP = HSPA5), as identified in eluates (human) (UniProt P11021); experiment: BiP-Sepharose pull-down, RA synovial fluid sample 2B, 1 M NaCl eluate, MS; BiP may stem from the column
[17] = molecular target: Hypothetical protein DKFZp686I04196 (Fragment)/Immunoglobulin heavy constant gamma 2 (G2m marker)/Ig gamma-2 chain C region (human) [IgG part: P01859]; experiment: BiP-Sepharose pull-down, RA synovial fluid sample 2B, 1 M NaCl eluate, MS; may be indirect
[18] = molecular target: Histidine-rich glycoprotein precursor (human) (UniProt P04196); experiment: as above
[19] = molecular target: fibronectin 1 isoform 4 preproprotein (human) (UniProt P02751); experiment: as above
[20] = molecular target: Heat shock 70 kDa protein 1L (human) (UniProt P34931); experiment: as above
[21] = molecular target: IGHG4 protein, immunoglobulin heavy constant gamma 4 (human) [IgG part: P01861]; experiment: as above
[22] = molecular target: Neutrophil defensin 1 precursor (human) (UniProt P59665); experiment: as above
[23] = molecular target: IGHM protein, coagulation factor VII (serum prothrombin conversion accelerator) (human) (UniProt P08709); experiment: as above
[24] = molecular target: FLJ00385 protein (Fragment), immunoglobulin heavy constant mu (human) (UniProt P01871); experiment: as above
[25] = molecular target: Clusterin precursor (human) (UniProt P10909); experiment: as above
[26] = molecular target: IGHM protein, coagulation factor VII (serum prothrombin conversion accelerator) (human) (UniProt P08709); experiment: BiP-Sepharose pull-down, RA synovial fluid sample 4B, 1 M NaCl eluate, MS; may be indirect
[27] = molecular target: Isoform H17 of Myeloperoxidase precursor (human) (UniProt P05164); experiment: as above
[28] = molecular target: Isoform H17 of Myeloperoxidase precursor (human) (UniProt P05164); experiment: BiP-Sepharose pull-down, RA synovial fluid sample 1B, 1 M NaCl eluate, MS; may be indirect

Sequence of Hypothetical protein/Heat shock 70 kDa protein 5 (glucose-regulated protein, 78 kDa = GRP78 = BiP = HSPA5), as identified in eluates (human) (P11021 19-654 limits assumed): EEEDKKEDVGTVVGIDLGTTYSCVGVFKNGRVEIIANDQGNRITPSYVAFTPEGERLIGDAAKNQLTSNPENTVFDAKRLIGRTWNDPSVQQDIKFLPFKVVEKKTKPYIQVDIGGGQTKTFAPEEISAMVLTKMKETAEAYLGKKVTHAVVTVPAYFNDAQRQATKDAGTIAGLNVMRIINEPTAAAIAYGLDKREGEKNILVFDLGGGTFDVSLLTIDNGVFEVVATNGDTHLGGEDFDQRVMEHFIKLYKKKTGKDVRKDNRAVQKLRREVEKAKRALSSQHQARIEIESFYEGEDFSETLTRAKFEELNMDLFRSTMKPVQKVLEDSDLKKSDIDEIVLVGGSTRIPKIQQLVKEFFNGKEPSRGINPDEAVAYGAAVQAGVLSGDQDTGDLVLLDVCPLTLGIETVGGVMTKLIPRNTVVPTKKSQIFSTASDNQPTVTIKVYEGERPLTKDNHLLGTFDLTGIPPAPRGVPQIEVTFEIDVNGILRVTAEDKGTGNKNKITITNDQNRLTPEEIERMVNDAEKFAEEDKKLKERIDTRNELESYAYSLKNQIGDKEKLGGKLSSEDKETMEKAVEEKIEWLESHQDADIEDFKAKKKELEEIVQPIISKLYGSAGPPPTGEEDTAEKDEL
Sequence of recombinant human BiP with C-terminal linker, FLAG-tag and His-tag (BiP-FLAG-His) (P11021 other isoform, or with tags, fused parts or gaps): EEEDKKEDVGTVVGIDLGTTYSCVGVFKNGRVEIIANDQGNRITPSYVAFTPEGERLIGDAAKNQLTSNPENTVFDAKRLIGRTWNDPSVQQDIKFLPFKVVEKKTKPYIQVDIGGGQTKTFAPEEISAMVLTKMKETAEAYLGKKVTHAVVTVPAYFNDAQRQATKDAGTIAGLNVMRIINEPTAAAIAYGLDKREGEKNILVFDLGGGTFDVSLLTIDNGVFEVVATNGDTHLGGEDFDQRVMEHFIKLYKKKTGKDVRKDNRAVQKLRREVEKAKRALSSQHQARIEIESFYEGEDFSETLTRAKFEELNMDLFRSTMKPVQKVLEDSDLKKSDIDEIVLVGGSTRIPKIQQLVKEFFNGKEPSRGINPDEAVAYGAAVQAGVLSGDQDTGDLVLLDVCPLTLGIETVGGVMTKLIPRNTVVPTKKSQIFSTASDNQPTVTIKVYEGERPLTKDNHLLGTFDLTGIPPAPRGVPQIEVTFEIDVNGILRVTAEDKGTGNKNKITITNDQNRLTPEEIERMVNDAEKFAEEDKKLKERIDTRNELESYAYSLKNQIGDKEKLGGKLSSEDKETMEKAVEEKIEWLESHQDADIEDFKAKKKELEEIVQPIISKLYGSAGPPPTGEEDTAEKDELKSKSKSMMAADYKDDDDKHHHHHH
Sequence of Heat shock 70 kDa protein 1L (human) (P34931 whole entry): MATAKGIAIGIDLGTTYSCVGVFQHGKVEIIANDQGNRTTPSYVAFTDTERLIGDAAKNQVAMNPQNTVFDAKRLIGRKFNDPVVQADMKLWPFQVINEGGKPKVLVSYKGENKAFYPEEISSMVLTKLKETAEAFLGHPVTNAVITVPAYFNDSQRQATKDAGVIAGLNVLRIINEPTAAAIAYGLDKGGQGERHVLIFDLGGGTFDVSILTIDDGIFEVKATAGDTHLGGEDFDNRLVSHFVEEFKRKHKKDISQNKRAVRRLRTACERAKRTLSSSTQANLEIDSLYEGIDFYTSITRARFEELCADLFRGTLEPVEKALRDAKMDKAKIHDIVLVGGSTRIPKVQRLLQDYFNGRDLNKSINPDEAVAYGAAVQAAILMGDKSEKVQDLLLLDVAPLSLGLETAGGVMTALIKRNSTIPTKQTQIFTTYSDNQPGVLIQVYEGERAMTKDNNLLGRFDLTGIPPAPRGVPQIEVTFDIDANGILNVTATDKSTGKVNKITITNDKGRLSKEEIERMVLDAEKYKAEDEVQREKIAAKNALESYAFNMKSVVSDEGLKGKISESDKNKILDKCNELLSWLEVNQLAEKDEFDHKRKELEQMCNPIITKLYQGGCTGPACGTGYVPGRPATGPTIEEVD
Sequence of FLJ00385 protein (Fragment), immunoglobulin heavy constant mu (human) (P01871 other isoform, or with tags, fused parts or gaps limits assumed): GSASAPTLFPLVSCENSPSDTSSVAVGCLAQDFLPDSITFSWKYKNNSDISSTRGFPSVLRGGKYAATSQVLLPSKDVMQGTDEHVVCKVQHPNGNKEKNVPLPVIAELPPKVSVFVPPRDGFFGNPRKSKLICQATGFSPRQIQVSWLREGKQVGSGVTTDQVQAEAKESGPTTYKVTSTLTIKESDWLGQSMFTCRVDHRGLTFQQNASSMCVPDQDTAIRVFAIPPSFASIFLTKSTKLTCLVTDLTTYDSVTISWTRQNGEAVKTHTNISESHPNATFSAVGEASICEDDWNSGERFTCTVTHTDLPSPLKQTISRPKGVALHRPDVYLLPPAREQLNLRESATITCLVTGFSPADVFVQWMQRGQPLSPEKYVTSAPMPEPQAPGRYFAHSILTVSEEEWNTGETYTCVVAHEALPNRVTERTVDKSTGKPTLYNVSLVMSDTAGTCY
Sequence of Neutrophil defensin 1 precursor (human) (P59665 65-94 limits assumed): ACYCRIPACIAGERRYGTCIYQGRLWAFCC
Sequence of Clusterin precursor (human) (P10909 23-449 limits assumed, form in doubt): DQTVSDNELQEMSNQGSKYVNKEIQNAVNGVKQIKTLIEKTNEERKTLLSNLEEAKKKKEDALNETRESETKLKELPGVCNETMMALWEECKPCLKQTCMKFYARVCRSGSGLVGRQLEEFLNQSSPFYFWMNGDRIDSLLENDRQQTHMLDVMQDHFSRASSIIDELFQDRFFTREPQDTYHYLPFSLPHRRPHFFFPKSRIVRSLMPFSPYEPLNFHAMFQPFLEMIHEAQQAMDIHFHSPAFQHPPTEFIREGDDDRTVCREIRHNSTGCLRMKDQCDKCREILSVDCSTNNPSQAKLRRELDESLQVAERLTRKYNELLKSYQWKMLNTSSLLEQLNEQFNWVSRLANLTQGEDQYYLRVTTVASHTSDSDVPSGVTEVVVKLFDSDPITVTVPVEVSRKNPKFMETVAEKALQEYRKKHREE
Sequence of IGHM protein, immunoglobulin heavy chain mu (heavy chain disease protein) (human) (P01871 other isoform, or with tags, fused parts or gaps limits assumed): as the sequence (P01871 other isoform, or with tags, fused parts or gaps limits assumed) above
Sequence of Haptoglobin precursor (human) (P00738 19-406 limits assumed): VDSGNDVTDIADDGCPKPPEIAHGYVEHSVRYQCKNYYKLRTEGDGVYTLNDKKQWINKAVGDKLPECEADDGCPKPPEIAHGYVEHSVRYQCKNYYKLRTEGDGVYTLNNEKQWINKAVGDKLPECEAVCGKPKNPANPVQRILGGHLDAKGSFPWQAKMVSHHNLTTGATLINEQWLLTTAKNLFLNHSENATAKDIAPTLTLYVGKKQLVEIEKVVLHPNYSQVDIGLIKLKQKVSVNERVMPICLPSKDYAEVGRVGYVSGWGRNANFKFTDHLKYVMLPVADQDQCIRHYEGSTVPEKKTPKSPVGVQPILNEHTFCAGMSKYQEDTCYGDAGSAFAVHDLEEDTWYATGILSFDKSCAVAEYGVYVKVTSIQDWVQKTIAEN
Sequence of IGHG4 protein, immunoglobulin heavy constant gamma 4 (human) [IgG part: P01861] (P01861 other isoform, or with tags, fused parts or gaps limits assumed): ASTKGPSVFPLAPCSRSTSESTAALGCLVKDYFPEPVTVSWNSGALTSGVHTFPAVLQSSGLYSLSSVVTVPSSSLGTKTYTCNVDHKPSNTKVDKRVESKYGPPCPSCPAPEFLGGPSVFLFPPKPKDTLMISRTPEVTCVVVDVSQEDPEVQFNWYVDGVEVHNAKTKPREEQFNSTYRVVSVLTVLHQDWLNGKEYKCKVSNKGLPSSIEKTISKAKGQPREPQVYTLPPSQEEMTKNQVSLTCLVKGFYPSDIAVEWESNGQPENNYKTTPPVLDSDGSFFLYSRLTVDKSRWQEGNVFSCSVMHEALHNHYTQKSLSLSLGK
Sequence of Galectin-3-binding protein precursor (human) (Q08380 19-585 limits assumed): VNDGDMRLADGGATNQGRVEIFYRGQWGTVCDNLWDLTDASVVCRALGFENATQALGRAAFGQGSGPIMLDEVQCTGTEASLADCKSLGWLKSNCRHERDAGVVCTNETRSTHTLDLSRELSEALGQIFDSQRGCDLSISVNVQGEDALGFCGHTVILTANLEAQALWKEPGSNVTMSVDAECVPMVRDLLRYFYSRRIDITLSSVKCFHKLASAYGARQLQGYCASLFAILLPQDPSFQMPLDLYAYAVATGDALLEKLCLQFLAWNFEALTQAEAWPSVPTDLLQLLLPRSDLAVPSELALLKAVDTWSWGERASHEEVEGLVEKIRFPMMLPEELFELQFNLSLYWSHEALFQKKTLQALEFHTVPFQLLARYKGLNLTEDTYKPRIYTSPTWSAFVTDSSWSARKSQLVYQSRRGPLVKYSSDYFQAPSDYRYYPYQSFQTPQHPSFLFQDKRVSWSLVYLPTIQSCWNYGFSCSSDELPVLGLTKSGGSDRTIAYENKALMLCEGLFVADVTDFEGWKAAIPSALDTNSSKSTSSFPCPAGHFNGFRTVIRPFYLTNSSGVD
Sequence of Apolipoprotein A-I precursor (human) (P02647 25-267 limits assumed): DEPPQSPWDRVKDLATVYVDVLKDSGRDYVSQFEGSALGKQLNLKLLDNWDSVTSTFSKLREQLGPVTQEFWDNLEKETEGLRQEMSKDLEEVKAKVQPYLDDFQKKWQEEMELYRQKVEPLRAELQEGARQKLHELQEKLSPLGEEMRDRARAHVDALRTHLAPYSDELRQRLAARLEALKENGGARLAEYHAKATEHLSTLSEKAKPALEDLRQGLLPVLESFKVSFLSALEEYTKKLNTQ
Sequence of IGKV1-5 protein, immunoglobulin kappa variable 1-5 (human) (P01602 23-117 limits assumed): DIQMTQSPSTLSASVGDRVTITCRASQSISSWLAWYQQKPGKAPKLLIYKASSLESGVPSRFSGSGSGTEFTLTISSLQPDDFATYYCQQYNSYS

## recombinant human BiP with C-terminal linker, FLAG-tag and His-tag (BiP-FLAG-His) (from UniProt P11021 19-654)
[1]
  # of unique peptides: 10 peptides
[2]
  # of unique peptides: 5 peptides
[3]
  # of unique peptides: 1 peptides
[4]
  # of unique peptides: 1 peptides
[5]
  # of unique peptides: 2 peptides
[6]
  # of unique peptides: 1 peptides
[7]
  # of unique peptides: 3 peptides
Histone H3.2 (human)
  # of unique peptides: 1 peptides
[8]
  # of unique peptides: 8 peptides
[9]
  # of unique peptides: 1 peptides
[10]
  # of unique peptides: 1 peptides
[11]
  # of unique peptides: 2 peptides
[12]
  # of unique peptides: 1 peptides
[13]
  # of unique peptides: 1 peptides
[14]
  # of unique peptides: 1 peptides
[15]
  # of unique peptides: 19 peptides
[16]
  # of unique peptides: 12 peptides
[17]
  # of unique peptides: 1 peptides
[18]
  # of unique peptides: 1 peptides
[19]
  # of unique peptides: 2 peptides
[20]
  # of unique peptides: 1 peptides
[21]
  # of unique peptides: 1 peptides
[22]
  # of unique peptides: 1 peptides
[23]
  # of unique peptides: 1 peptides
[24]
  # of unique peptides: 1 peptides
[25]
  # of unique peptides: 1 peptides
[26]
  # of unique peptides: 1 peptides
[27]
  # of unique peptides: 1 peptides
[28]
  # of unique peptides: 1 peptides
